According to patent US6429298:

System: Modified p53 (human p53 engineered to contain the HIV-1 protease cleavage site VSFNFPQITL upstream o)

Substance: HIV-1 protease
- SDS-PAGE migration of purified p53 fusion protein after co-expression with HIV-1 protease (cleavage): The mutagenized p53 migrated more quickly than the wild-type protein (as did p53Δ30), but only after coexpression with HIV-1 protease.
